Results from US20250011363A1, “OPTIMIZED SHORTENED PEPTIDE THAT BINDS TO ACETYLCHOLINE RECEPTOR, AND USE THEREOF” (SKINMED CO., LTD., priority 2021, published 2025).

These binders were tested against acetylcholine receptor (assay: SPR, AchR on chip, peptide 10 uM).
RWQQK [5mer-6] showed a Binding affinity (RU) of 61 RU. KSYYR [5mer-306] was tested, and the Binding affinity (RU) was 74 RU. For RQLTK [5mer-7], the Binding affinity (RU) was 54 RU. In the case of KQRCK [5mer-307], the Binding affinity (RU) is reported as 82 RU. RQRSR [5mer-8] gave a Binding affinity (RU) of 51 RU. With RLRCR [5mer-308] the Binding affinity (RU) was 84 RU. RGVQR [5mer-9] was tested, and the Binding affinity (RU) was 77 RU. Work on KVQYR [5mer-309] yielded a Binding affinity (RU) of 70 RU. For RVQRR [5mer-10], the Binding affinity (RU) was 55 RU. Binder KSRQR [5mer-310] has a Binding affinity (RU) of 78 RU. KQRLR [5mer-11] was tested, and the Binding affinity (RU) was 84 RU. With RVFLR [5mer-12] the Binding affinity (RU) was 70 RU. In the case of KRYCR [5mer-312], the Binding affinity (RU) is reported as 81 RU. Work on RLISK [5mer-13] yielded a Binding affinity (RU) of 52 RU. In the case of RSQLK [5mer-313], the Binding affinity (RU) is reported as 75 RU. RWLCK [5mer-14] gave a Binding affinity (RU) of 63 RU. Work on RWYTR [5mer-314] yielded a Binding affinity (RU) of 80 RU. KGVCK [5mer-15] was tested, and the Binding affinity (RU) was 75 RU. In the case of KLFSR [5mer-315], the Binding affinity (RU) is reported as 77 RU. For KLYTK [5mer-16], the Binding affinity (RU) was 66 RU. Binder KQYLR [5mer-316] has a Binding affinity (RU) of 73 RU. Work on KRIYK [5mer-17] yielded a Binding affinity (RU) of 70 RU. RRVQR [5mer-317] was tested, and the Binding affinity (RU) was 86 RU. RQLRR [5mer-18] was tested, and the Binding affinity (RU) was 69 RU. In the case of KRVCK [5mer-318], the Binding affinity (RU) is reported as 64 RU. KRFQR [5mer-19] was tested, and the Binding affinity (RU) was 72 RU. RVQTR [5mer-319] gave a Binding affinity (RU) of 74 RU. For RGRYK [5mer-20], the Binding affinity (RU) was 78 RU. Work on RVVQR [5mer-320] yielded a Binding affinity (RU) of 75 RU. KWFTR [5mer-21] showed a Binding affinity (RU) of 63 RU. RSLSR [5mer-321] was tested, and the Binding affinity (RU) was 68 RU. RQQLK [5mer-22] gave a Binding affinity (RU) of 66 RU. RRQSR [5mer-322] gave a Binding affinity (RU) of 84 RU. Binder KWLYK [5mer-23] has a Binding affinity (RU) of 86 RU. In the case of KWYYR [5mer-323], the Binding affinity (RU) is reported as 77 RU. KSQCR [5mer-24] gave a Binding affinity (RU) of 67 RU. For KSQRR [5mer-324], the Binding affinity (RU) was 58 RU. KVVYK [5mer-25] showed a Binding affinity (RU) of 60 RU. Work on KRIQR [5mer-325] yielded a Binding affinity (RU) of 50 RU.

The binders below were run against acetylcholine receptor (assay: SPR, AchR immobilised on chip, peptide 10 uM).
KDKPR [5mer-799] was tested, and the Binding affinity (RU) was 24 RU. RATAR [5mer-1099] gave a Binding affinity (RU) of 14 RU. Work on KEAPR [5mer-800] yielded a Binding affinity (RU) of 29 RU. In the case of RPWKR [5mer-1100], the Binding affinity (RU) is reported as 24 RU. For KFHGR [5mer-801], the Binding affinity (RU) was 20 RU. For KYKNR [5mer-1101], the Binding affinity (RU) was 11 RU. RITVR [5mer-802] gave a Binding affinity (RU) of 27 RU. KTHKK [5mer-1102] gave a Binding affinity (RU) of 20 RU. With RFSDR [5mer-803] the Binding affinity (RU) was 11 RU. With KKSHR [5mer-1103] the Binding affinity (RU) was 18 RU. RNTIR [5mer-804] gave a Binding affinity (RU) of 20 RU. RETHK [5mer-1104] was tested, and the Binding affinity (RU) was 12 RU. RPTNR [5mer-805] was tested, and the Binding affinity (RU) was 27 RU. With RPTKR [5mer-1105] the Binding affinity (RU) was 33 RU. Work on RKMFR [5mer-806] yielded a Binding affinity (RU) of 17 RU. Work on RYTER [5mer-1106] yielded a Binding affinity (RU) of 18 RU. Work on RKNKK [5mer-807] yielded a Binding affinity (RU) of 20 RU. Binder RPWHK [5mer-1107] has a Binding affinity (RU) of 21 RU. Binder KFCIR [5mer-808] has a Binding affinity (RU) of 13 RU. With RNPIR [5mer-1108] the Binding affinity (RU) was 19 RU. RKSGK [5mer-809] was tested, and the Binding affinity (RU) was 15 RU. For KCHPK [5mer-1109], the Binding affinity (RU) was 14 RU. KFHKK [5mer-810] gave a Binding affinity (RU) of 11 RU. In the case of RMHMK [5mer-1110], the Binding affinity (RU) is reported as 13 RU. KMTMR [5mer-811] was tested, and the Binding affinity (RU) was 32 RU. Binder KAEHK [5mer-1111] has a Binding affinity (RU) of 12 RU. Binder KTEGR [5mer-812] has a Binding affinity (RU) of 27 RU. Work on RTTFK [5mer-1112] yielded a Binding affinity (RU) of 29 RU. Binder RAHVR [5mer-813] has a Binding affinity (RU) of 21 RU. RHMER [5mer-1113] showed a Binding affinity (RU) of 19 RU. In the case of RITMR [5mer-814], the Binding affinity (RU) is reported as 11 RU. In the case of RKTFR [5mer-1114], the Binding affinity (RU) is reported as 28 RU. With RKDHR [5mer-815] the Binding affinity (RU) was 27 RU. With KEPEK [5mer-1115] the Binding affinity (RU) was 27 RU. With RKPIK [5mer-816] the Binding affinity (RU) was 26 RU. Binder KECFR [5mer-1116] has a Binding affinity (RU) of 24 RU. Work on RHKDR [5mer-817] yielded a Binding affinity (RU) of 23 RU. RHKIR [5mer-1117] gave a Binding affinity (RU) of 11 RU. KHWHR [5mer-818] gave a Binding affinity (RU) of 12 RU. Work on RMDAR [5mer-1118] yielded a Binding affinity (RU) of 28 RU.
